Source: the supplement of paper PMC9170038

These sequences were tested on K4 kissing-loop RNA reporter (assay: apparent KD of K4 kissing-loop reporter; higher = weaker reporter binding). Details: Eterna round: R107; input ligand: none.
Description: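 RNA-MaP round R107: designed RNA switches with theophylline, tryptophan, arginine or FMN aptamers are transcribed on-chip within common flanks. They are titrated with a labelled K4 kissing-loop RNA reporter in RNA-MaP buffer (100 mM Tris pH 7.5, 80 mM KCl, 4 mM MgCl2), without ligand or with the indicated ligand. Median apparent KD per design.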
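Also: bound reporter read as fluorescence of individual clusters on recovered sequencing chips by microscopy, with normalized cluster intensities fitted with a binding model.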

| Sequence | apparent KD of K4 kissing-loop reporter |
| --- | --- |
| UGAUUUAACUGAAGGAGCGGCAAUAGAGAAGGAAAUAUAGUGAUGUUAUAUAAGAGAGAGAGCCAGGUAGGUCGCAGAGGGAGGA [ExArgB.F] | 137 nM |
| AGUAAUGAGUGAUGUUCAAAUAGUAAGGAUACCAGUAAUUCAAAAUGCCCUUGGCAGCUUAACGCUACCAAUAGAUAAAUAAUGG [Theophilline A V2 (+2A)] | 144 nM |
| ACCUGUAGUGAUGUUACUGGUGGUUAGGAAGGAGCGCCCGCGUGGGCAGGUAGGUCGCCUAAGCUAUGUGGGAAACCGCAUAUUG [#14 K4 Arginine A Same State] | 76.9 nM |
| ACGUAGUUCUAGGAUACCAGCCAAGGCCCAGGACAAAAGUCCUGGGUCGCCAGUGAUGUUGGCCCUUGGCAGCCUAGAACUACGA [Omei KL Theo B Exc B v11] | 457 nM |
| AAAUUUAAUAUAUUUAAUUAAUUAUGUGAUACCAGACAUUUAUAAGUCCCUUGGCAGCACUUUGCAGUGAUGUUGCUUAUAAUAA [JR_SSTheophyA_Sub014] | 91.4 nM |
| UGGCCUUAAAUUCUAGGAUUAGCGACGUACAAGGAUAUUCGUCAUCGAAGAAGGUGUAGCUAGGAGAGUGAUGUUUUCCAUCGCC [theeternabot_sameState_KL_FMN_A_15] | 549 nM |
| AAUAAGGAGUGAUGUUCCAAGUGAUGUUAACGAGGACCGGUACGGCCGCCACUCGAUACGGCCGGAAAAUAAAAUAAAAUAAAAU [Same State - Tryptophan A (Freestyle 1)] | 134 nM |
| AGGAGUGAUGUUCCUACAUAGACGGUCCGACGAGGACCGGUACGGCCGCCACUCGCGUCCCAGUGAUGUUGGGAUUCAACGUACA [Exclusion Tryptophan A Gf 15] | 139 nM |
| AGCUCAGAGUGACUCGAUAAGAGUCACAAACGAGGACCGGUACGGCCGCCACUCGAAAUAACGAGAGUGAUGUUCUCACUGAGCA [FiskerMod 11 - Jieux - Same State Tryptophan A] | 1260 nM |
| UGUACCGAUUCAGGAUAUGUCGUCGAAAGACGAAAUGGAGUGAUGUUCCUUAAACUGCGAAAGCAGACAGAAGGGAAUUGGUACU [FmnBS 29 U9+A77] | 300 nM |
| UAACUUGCAGUGAUGUUGCAAGAACUGGAUACCAGCAUGGAAACAUGCCCUUGGCAGCCAGAAGCUGGCUGACUGCAAGGUCAGC [Design4] | 124 nM |
| UGAUACCAGACUGAUACCAGCAAGUGAUGUUUGCUGAUCUAAAGCAGUCAAAGACUGCCUUGCCCUUGGCAGCAGUCUGGUAUCU [TheoBX 25 #SwitchBubble #StaticStem] | 96.6 nM |
| ACAGUUGCUAGUGAUACCAGACUAGCACUACGUAAUAUGUCAAGUGAUGUUUGACAACUAGUCCCUUGGCAGCGCGAUACGACUG [#11 K4 Theophylline B Same State] | 259 nM |
| UGUUGAGUGAUGUUCGAUGUAGUUCAUUCAGAGGAUAUAGGGUGGGCUAGAAGGCUGAAAAGUGCUUCGAGUGAUGUUCGAAGAU [Exclusion FMN A GF 7] | 99.3 nM |
| CCAACAACGAGUGAUGUUCGUUGAUCUGAAGGAGCGUCAAUAAUGACAGGUAGGUCGCAGAUAAUUGGAUAUAGGGCAAUAGCUC [Same State Arginine A GF13] | 125 nM |
| AGGUUUUGAUUAGGAUAUGCACUGAGGAGGAGAAUAUAGUGAUGUUAUAUAAGAGGAAGGAGUAGAGUAGAAGGGAUUGAGGUUU [SSFMNB.R] | 199 nM |
| CGCGCGCGCGCGCGCGCGCGCGCGAAUGAUACCAGUAUAUAAGAAUACCCUUGGCAGCAUAAGAAAGAUAUAGUGAUGUUGUAUA [SSTheophA.B] | 269 nM |
| GCCGUACGCAUGGAUACCAGCAAUUAUGCUCGUGAUCUAGUGAUGUUAGUGGCGAAAGUUUGCCCUUGGCAGCCAUGCGUACGGC | 244 nM |
| AGCAUUUUCAGAAGGAGCGUGAAUUAUUCUUAAUUAUAUUAUACGAGUGAUGUUCGUGUUUCACAGGUAGGUCGCUGAUAUAGCA [JR_SSArginiB_Sub004] | 47.7 nM |
| AAGUGAUGUUGUAGUGAUGUUGUGAUGUUGCAGGAUAUAUAGUGAUGUAGAAGGGUAUGUACAGUUUUUUUUUUUGAGUGUUGAU [sscsmullin] | 62.2 nM |
| AGGGCUGAGAGCGAUACCAGCGGAUACUAUAUGGUCCAAUAGAGUGAUGUUUUAUAAAGCCGCCCUUGGCAGCGCAAUCUAUUAG [XTheo-B4] | 501 nM |
| CCUUCUCUUGAUAGUGAUGUUGUCGAGGACAAGGAUAUCAUCUCAAUGAGAAGGUGUCCUUGAUAACAUGGAGGUCUGAAACAGA [Omei KL FMN A Exc C v10] | 333 nM |

Same assay, conditions: Eterna round: R107; input ligand: theophylline 20 uM

| Sequence | apparent KD of K4 kissing-loop reporter |
| --- | --- |
| UGUACCGAGUCAGGAUAUGGCGUCGAAAGACGAAAACCAGUGAUGUUGGAAAUCUGCGAAAGCAGUCCAGAAGGGACUUGGUACU [FmnBS 25 #SwitchBubble #StaticStem #DoubleMagnetSystem] | 251 nM |
| GAUUGUGAUGGAAACAUCGCAAUCUCUGAAGGAGCGCGUGAAAACGCAGGUAGGUCGCAGGACGACUAUGACAGUGAUGUUGUCG [Ex Arginine A K4 3] | 207 nM |
| GCAACUCUCAGUGAUGUUGAGUUAUCGGAAGGAGCGCGUGAAAACGCAGGUAGGUCGCCGAUACAAUGAGUUUCUCGUUGGUUGC [Arginine A K4 21] | 554 nM |
| AGCGUCCCUACGGCCGCCACUGGGAGUGAUGUUCCCAGGUUAGGCCUGAGGAUACUAAGGAUCGCCAGGACCGGGUAGCGACCAU [Azaonbe] | 69.2 nM |
| UAGUCGCUAGUUAGCGACAACGGGUCAGAUACCAGACUAGCGAUAGUCCCUUGGCAGCUGAAGUUCAGUGAUGUUGAACGGAUUA [Theo A SS t10] | 230 nM |
| GCGUCAUCGAAAGGAUAUGGAGUAGUGAUGUUGAUCCAUAUGCUCACGCAUAGCCGAGAACAUCGACCAGAAGGUUCAAGAACUG [theeternabot_exclusion_KL_FMN_B_41] | 520 nM |
| UGUACCGAGUCAGGAUAUGACGACUAGUCAAAGACUGGUCGAAAAUCCAGUGAUGUUGGAAAUAAAUCAGAAGGGACUUGGUACU [FmnBS 16 #SwitchBubble #StaticStem] | 357 nM |
| CUCGUGGGUUUGAGAGGGCUUGUGGGAAGUGAGGAUAUUUAGGGAGAAAGAAGGCACUAUAGAAUAUAGUGAUGUUAUGUAAGGG [SSFMNA.O] | 180 nM |
| AGAGGAAAUAGAAGGAGCGGCGCCAGUGAUGUUGGAUGCCGCGGGUGAAUCAGGUCAUAGUGCCAGGUAGGUCGCUAUUUCAGCG [Larebeve] | 161 nM |
| AUUAAUUUCAGAGGAUAUCGUAUUUAUAUUUUAUCUUUCCAUAUUUGCAGUGAUGUUGCAUUAAUUCGAGAAGGCUGAUUUAUAA [JR_ExcFMNB_Sub008] | 75.1 nM |
| AGAGAUAUAUGAGGAUAUGAGUUAGUUAAUGAGUGAGUUUUAGUGUUGUUUGGUUAGUGAUGUUAUUUAGAAGGCGUGAGUGAUG [ttytmullin] | 106 nM |
| GCAGGACGAGGAGGAGGAUGAAUUACUGAAGGAGCGCAUAUGGUUGCAGGUAGGUCGCGGUAAACAAGUAUAGUGAUGUUAUAUC [SSArgA.P] | 621 nM |
| GUAGACAGGCUGCGAACCUAGUCUACAGACUAGGAUAUCAGGAAACUGAGAAGGAGUCUAGUUGCAGUGAUGUUGCAAGAAUAAU [KL-SSFMN-A25] | 135 nM |
| CCAUCGCUAUUCGAUACCAGCUACUUAGUGAUGUUAAGUUUAAAUCCACUGUAGGUGGAAAGCCCUUGGCAGCGAAUAGUGAUGG [Theophylline B K4 24] | 157 nM |
| GCGCGUCAUGUCGGCGGUGACUACGCCGAUACCAGCCGGGAAACCGGCCCUUGGCAGCGGCGCGCCGGAGUGAUGUUCCGACAGA [#2 Exclusion - Theophylline A Attempt #3 (HarryS)] | 359 nM |
| CAUGGACUUCCAGUGUAUCCAUGACUGGAUACCAGUCAGGAAACUGACCCUUGGCAGCCAGAACUGGAAGUGAUGUUUCCAGUAA [Design8] | 244 nM |

| Sequence | apparent KD of K4 kissing-loop reporter |
| --- | --- |
| AAAUUUUCGAGUGAUGUUCGAAUAAUUUCAGAGGAUAUGCUUAAAAGCAGAAGGCUGUAUUACUAUUUGUUAUUAAAUUUUAUAA [JR_ExcFMNA_Sub001] | 105 nM |
| CUCACAGUGAUGUUGUGGGCCGAGAGUGAUACCAGCCGUAUUUGUGGCCCUUGGCAGCGCAAAAGCCGAGUGAUGUUCGAAUCGG [Same State Theophylline A GF 24] | 190 nM |
| UGUAUAGUCAGAAGGAGCGUGAACGAUCGAGAAUCGAUCAGCCAGUGAUGUUGGCAGGAAUCACAGGUAGGUCGCUGACUGUACA [Arg B SS t3] | 240 nM |
| GGUAGCAUGGCGGCCGCCACUUUGCACCUUUUCUUUUCUUUUGGUGCUUCACGAGUGAUGUUCGUAAGGACCGGGCCAUGCUACC | 213 nM |
| GCCGUAGAUGGAAGGAGCGUGUCCAAACCUCAUUCAUGUACACACGAGUGAUGUUCGUGUACACAGGUAGGUCGCCAUCUACGGC | 410 nM |
| UGAUUUAACUGAAGGAGCGGCAAUAGAGAAGGAAAUAUAGUGAUGUUAUAUAAGAGAGAGAGCCAGGUAGGUCGCAGAGGGAGGA [ExArgB.F] | 171 nM |
| AGUAAUGAGUGAUGUUCAAAUAGUAAGGAUACCAGUAAUUCAAAAUGCCCUUGGCAGCUUAACGCUACCAAUAGAUAAAUAAUGG [Theophilline A V2 (+2A)] | 172 nM |
| ACCUGUAGUGAUGUUACUGGUGGUUAGGAAGGAGCGCCCGCGUGGGCAGGUAGGUCGCCUAAGCUAUGUGGGAAACCGCAUAUUG [#14 K4 Arginine A Same State] | 75.3 nM |
| ACGUAGUUCUAGGAUACCAGCCAAGGCCCAGGACAAAAGUCCUGGGUCGCCAGUGAUGUUGGCCCUUGGCAGCCUAGAACUACGA [Omei KL Theo B Exc B v11] | 387 nM |
| AAAUUUAAUAUAUUUAAUUAAUUAUGUGAUACCAGACAUUUAUAAGUCCCUUGGCAGCACUUUGCAGUGAUGUUGCUUAUAAUAA [JR_SSTheophyA_Sub014] | 192 nM |
| UGGCCUUAAAUUCUAGGAUUAGCGACGUACAAGGAUAUUCGUCAUCGAAGAAGGUGUAGCUAGGAGAGUGAUGUUUUCCAUCGCC [theeternabot_sameState_KL_FMN_A_15] | 576 nM |
| AAUAAGGAGUGAUGUUCCAAGUGAUGUUAACGAGGACCGGUACGGCCGCCACUCGAUACGGCCGGAAAAUAAAAUAAAAUAAAAU [Same State - Tryptophan A (Freestyle 1)] | 120 nM |
| AGGAGUGAUGUUCCUACAUAGACGGUCCGACGAGGACCGGUACGGCCGCCACUCGCGUCCCAGUGAUGUUGGGAUUCAACGUACA [Exclusion Tryptophan A Gf 15] | 149 nM |
| AGCUCAGAGUGACUCGAUAAGAGUCACAAACGAGGACCGGUACGGCCGCCACUCGAAAUAACGAGAGUGAUGUUCUCACUGAGCA [FiskerMod 11 - Jieux - Same State Tryptophan A] | 808 nM |
| UGUACCGAUUCAGGAUAUGUCGUCGAAAGACGAAAUGGAGUGAUGUUCCUUAAACUGCGAAAGCAGACAGAAGGGAAUUGGUACU [FmnBS 29 U9+A77] | 318 nM |
| UAACUUGCAGUGAUGUUGCAAGAACUGGAUACCAGCAUGGAAACAUGCCCUUGGCAGCCAGAAGCUGGCUGACUGCAAGGUCAGC [Design4] | 136 nM |
